Data reported in the supplement of paper PMC9170038.

Test system: K4 kissing-loop RNA reporter
Assay: apparent KD of K4 kissing-loop reporter; higher = weaker reporter binding
Conditions: Eterna round: R107; input ligand: none
Protocol: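 RNA-MaP round R107: designed RNA switches with theophylline, tryptophan, arginine or FMN aptamers are transcribed on-chip within common flanks. They are titrated with a labelled K4 kissing-loop RNA reporter in RNA-MaP buffer (100 mM Tris pH 7.5, 80 mM KCl, 4 mM MgCl2), without ligand or with the indicated ligand. Median apparent KD per design.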
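Further: bound reporter read as fluorescence of individual clusters on recovered sequencing chips by microscopy, with normalized cluster intensities fitted with a binding model.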

| Sequence | apparent KD of K4 kissing-loop reporter |
| --- | --- |
| AAGAAGGUCAAAGACCUUCGUGCACCUGAUACCAGUCGCGAAAGCGACCCUUGGCAGCAGGGCAGUGAUGUUGCCAAGUGCACAA [Omei KL Theo A SS A v1] | 898 nM |
| AUUCUAUUGUGAAGGAGCGCGUAUAGUAGUGAUGUUACUAUAAUAAUAGAUAUUUAAUUCUCGCAGGUAGGUCGCACAAUAUAUA [JR_Nu_ExcArginiB_Sub025] | 96.3 nM |
| AGGUCACAACUACAGUGAUGUUGUGGAGAGCAGGAUAUGCAGAAAUGCAGAAGGGCUCGCUCUCUAGUGACCGAUCAAAAGAUCA [Omei KL FMN A SS A v9] | 669 nM |
| CCUAUCUCAUACGAUACCAGUCCGAGUGAUGUUCGAAAAUAAAUAAAUUUGCCAUAUAAUGACCCUUGGCAGCGUAUGGGAUAGG [Ex Theophylline B K4 11] | 351 nM |
| CAGAAGCAUUCGGCCGCCACUCCAGUGAUGUUGGAGCGGGAGGGCCUUAAACCUCGAGGCUGCUGGAGGACCGGGAAUGUUGAGG [Beerso] | 168 nM |
| GCCGUACGCAUGGAUACCAGAUGGCACUAUAAUCUACCAGAGUGAUGUUCUGGCCUGCCCAUCCCUUGGCAGCCAUGCGUACGGC | 287 nM |
| UGUGUUUACCUGACUCAGUGAUGUUGAGAAGGAGCGUGCGAAGGCACAGGUAGGUCGCUCAACCUAAAUUCAGGUGAGCACUAAA | 344 nM |
| CUCGAGUGAUGUUCGAUUAUGUAUACAGAUACCAGUGAAUUUUAACACCCUUGGCAGCUGGUAGAAUCUUUGUAAUUUUAACUAG [JR_ExcTheophyA_Sub002] | 180 nM |
| UUGUUUGGUUGAGAGGUUGGGCGAGAUGAUACCAGUAGAGAAGAGUACCCUUGGCAGCAUAAGAAAGAUAUAGUGAUGUUGUAUA [SSTheophA.P] | 546 nM |
| GGAGUGAUGUUCCAUUUUUAAAUCUCCGAUACCAGUAUGGAAACAUACCCUUGGCAGCGGUAAACCGCAGAUUAGGAAACUAGUC [Theophylline A K4 1] | 615 nM |
| AAAUAGAUCAGUCAACCAGUGAUGUUGGAAGGAGCGUGCGAAAGCACAGGUAGGUCGCCAGAAUAAAAGUGGCUGAUCAAAAUAA | 374 nM |
| UGAUACCAGACGGCCGCCACUCCCGCAGGUCAAAGACCUGCGAAGAAGGUUCUUUAGUGAUGUUGGAGGACCGGGUCUGGUAUCU [FiskerMod 21 - Jieux - Exclusion - Tryptophan B] | 744 nM |
| AAGCCAGAGAUUGCUGCGGGUUCCAGAGAUACCAGCCGUAUUGAAGGCCCUUGGCAGCUCGAGUGAUGUUCGAGCCGUCUCCGGC [Onte] | 114 nM |
| AAAAUAAGCCAGUGAUGUUGGUACCCAGAUACCAGCGACGAAAGUCGCCCUUGGCAGCUGUGGACGUACAAAAUAAGUACGUCCU | 315 nM |
| AGGUAGUCCCUUGUUGUCAUCGAAGAUGAACGAGGACCGGUACGGCCGCCACUCGGAGUGAUGUUCCGAUGGCUGCAAAAUAAAA [MatMod 23 - Jieux - Exclusion - Tryptophan A] | 97.2 nM |
| AAUAAAAUCACGGCCGCCACUGAUUUUUUUAUUAGGAGUGAUGUUCCUAUGACUAUAUUAUUUAACAGGACCGGGUGAAUAUUUA [JR_SSTryptoB_Sub023] | 87.4 nM |
| UAGAGGAGACUCUAAUUCCUUAAGUCCGAAGGAGCGACCCAAUGGUCAGGUAGGUCGCGGACAAUCCUAGUGAUGUUAGGAUCUG [Arg A SS t5a] | 160 nM |
| UAACGCCACUAAGAUACCAGACAUACAGAUCGGAUCUCCUAAAGAGAGUGAUGUUCUCUAGUCCCUUGGCAGCUUCUGGACUCCC [theeternabot_sameState_KL_Theo_B_9] | 406 nM |
| GGCACUUUUGCUUGGAACCGUCAAGCUCUUUAGGAUAUCUGGAAACAGAGAAGGAAAGACCUACAGAGUGAUGUUCUGCGUGCCU | 273 nM |
| UUAGGAGUGGAAGGAUAUCCUGGUGUGGGUGAUGUUAGUGAUGUUGAAAGUGCAGUGAUGUUGCGCGGAGAAGGUCCGGUGUUGA [BDazzled - #7 - Exc. FMN B] | 173 nM |
| UGAUACCAGACUGAUACCAGCAAGUGAUGUUUGUUGAUCUAAAGCAGUCAAAGACUGCCUUGCCCUUGGCAGCAGUCUGGUAUCU [TheoBX 27 #SwitchBubble #StaticStem] | 832 nM |
| CCUAUCUGUUACGAUACCAGUCAAAGAUAUUUUAUCAAUGCCCUCACCGAGUGAUGUUCGGACCCUUGGCAGCGUCUGGGAUAGG [pnnbmullin] | 185 nM |

Same assay, conditions: Eterna round: R107; input ligand: theophylline 20 uM

| Sequence | apparent KD of K4 kissing-loop reporter |
| --- | --- |
| AGUGUUAGGUUAGAUACCAGCCGUCUAUGGAUAAUCCUCAGACCGCCAGUGAUGUUGGCAGGCCCUUGGCAGCUAACAGAACAGA [Reinonor] | 164 nM |
| CGUAGUUGGGCGGCCGCCACUUGAAAAGCUUUGCCAAAGGCAGAGCUCUAGAGUGAUGUUCUGGCAAGGACCGGGUCCAACUACA [#03 K4 Tryptophan B Same State] | 590 nM |
| CCAUGAGGAUAAGAUGAUAUCAUAACAGAAGGAGCGAGUGAUAACUCAGGUAGGUCGCUGAAUUUAUCGAGUGAUGUUCGAUGAA [Same State Arginine A GF11] | 179 nM |
| UCCUGCAAUCGCCCACGAAAGUGGAUUGAUACCAGAGUCGAAAGACUCCCUUGGCAGCGAGUGAUGUUCGAAGCAGGUAAAUAAA | 540 nM |
| AACCACUCGUUACAUCACUAUCGAGUGGAACGAGGACCGGUACGGCCGCCACUCGGUAACAAGCAGUGAUGUUGCUUGUAAGAAU [KL-SSTryp-A (BrourdMod)2 #dotplot2 strengthened] | 312 nM |
| AGCAGUGAUGUUGCUCAAUUUACAGGUGAUACCAGAGGUCAGUCUCUCCCUUGGCAGCACUUCAUACGAUGAUGUUUUAUCGGCC [theeternabot_sameState_KL_Theo_A_50] | 378 nM |
| AUGGCACGACUUGCCCACAAUGUCUAUGCCCGAGGACCGGUACGGCCGCCACUCGGAUGCCGUGUCUUAUUAGUGAUGUUGAUAC [theeternabot_sameState_KL_Trp_A_4] | 355 nM |
| CGGAUGUAGUGAUGUUAUAUUAGAUGUAGACGAGGACCGGUACGGCCGCCACUCGUGAUGGCUGCUAGCACGUUUCGAUGUUUGC [ExTryptoA.Cq] | 611 nM |
| UUACGGUCCUCGGCCGCCACUCAUAGUGAUGUUAUGCUGCCUGAAGGCACCGGACCUGGAUAUCAGAGGACCGGGAGGCCAUUCG [theeternabot_exclusion_KL_Trp_B_6] | 560 nM |
| AUUAAUUUCAGAGGAUAUCGUAUUUAUAUUAUAUCUUUCCAUAUUUGCAGUGAUGUUGCAUUAAUUCGAGAAGGCUGAUUUAUAA [JR_Nu_ExcFMNB_Sub024] | 82.4 nM |
| GGGCCGCGCGCGGCCGCCACUCAGUGAUGUUGGGUGAGCUUUGCUGUGCGUGCUGUUUCGUGACGGAGGACCGGGCGCGCGGCCU [BDazzled 2] | 113 nM |
| AUGCGCGCGGCGGCCGCCACUCGCAUGAGAGUGAUGUUCUCGCCGGGCCCGGAAGGGCCCGGUGUGAGGACCGGGCCGGGCUGCG [#2 Same State - Tryptophan B Attempt #17 (HarryS)] | 278 nM |
| CAAUGAGUAUAAGAUGAUAUCAUCACAGAAGGAGCGAGUGAUAACUCAGGUAGGUCGCUGAAUUUAUCGAGUGAUGUUCGAUAGA [whbob_SS_Arginine_A_sa118] | 175 nM |
| AGACUACUGAUAGGAUAUAACAUACUAGCUCGUAUACCAAAGGUAUACGAGCACCUUCUAGUGAUGUUAGAAGGGUCGGUAGUCA [Omei KL FMN B Exc B v3] | 109 nM |
| GCGUGCAAGUCAUGAUGCCCUAUCAGGACUAAGGAUAUAGCGUGACCUAGAAGGUAGCUAGUGAUGUUGGCUGACAUGCUACUGC [theeternabot_exclusion_KL_FMN_A_49] | 376 nM |
| ACACGCAACUAUAGACCAGUGAUGUUGGAACGAGGACCGGUACGGCCGCCACUCGAGCGGACGAUCUACGCCUCUUAUGCUAACG [theeternabot_exclusion_KL_Trp_A_15] | 545 nM |

| Sequence | apparent KD of K4 kissing-loop reporter |
| --- | --- |
| AUUCGCUCCACUGAUACCAGUCAUCGAGCAAGAUGCUAAGCCAGUGAUGUUGGCAUGAAUGACCCUUGGCAGCAGUACACUAAGG [Theo B SS t7] | 113 nM |
| UGGCGAGUGAUGUUCGUUGUUGUAGUGUGUCGAGGACCGGUACGGCCGCCACUCGAGUUGGUUGUUGUUGUUGCUGUUGUUGCUG [#03 K4 Tryptophan A Same State] | 157 nM |
| CGGCGCGGCGCGGCCGCCACUGCGCCUGGGUGCUCGCCGAGUGAUGUUCGUCGGCGGUUGGGUGGCAGGACCGGGUGCCGGCCCG [BDazzled - #18 SS Tryptophan B] | 1030 nM |
| UGUUUUUUUUUGAUGUUUGUUGUAAAAUGGCAGGAUAUCGUAGAGGCGAGAAGGGCUUUUAUGCGUUAUGAGUGAUGUUUGUAGG [vevvmullin] | 269 nM |
| AGGUCCGAGCCCGGAAGGGCUCGGACCUGUUAGGAUAUGACGUUAUUCAGAAGGGAUGGGUGGAGUGAUGUUCCACCCGAGAGGG [#2 Same State - FMN A Attempt #17 (HarryS)] | 108 nM |
| AAGAAGGUCAAAGACCUUCGUGCACCUGAUACCAGUCGCGAAAGCGACCCUUGGCAGCAGGGCAGUGAUGUUGCCAAGUGCACAA [Omei KL Theo A SS A v1] | 400 nM |
| AUUCUAUUGUGAAGGAGCGCGUAUAGUAGUGAUGUUACUAUAAUAAUAGAUAUUUAAUUCUCGCAGGUAGGUCGCACAAUAUAUA [JR_Nu_ExcArginiB_Sub025] | 85.6 nM |
| AGGUCACAACUACAGUGAUGUUGUGGAGAGCAGGAUAUGCAGAAAUGCAGAAGGGCUCGCUCUCUAGUGACCGAUCAAAAGAUCA [Omei KL FMN A SS A v9] | 545 nM |
| CCUAUCUCAUACGAUACCAGUCCGAGUGAUGUUCGAAAAUAAAUAAAUUUGCCAUAUAAUGACCCUUGGCAGCGUAUGGGAUAGG [Ex Theophylline B K4 11] | 400 nM |
| CAGAAGCAUUCGGCCGCCACUCCAGUGAUGUUGGAGCGGGAGGGCCUUAAACCUCGAGGCUGCUGGAGGACCGGGAAUGUUGAGG [Beerso] | 173 nM |
| GCCGUACGCAUGGAUACCAGAUGGCACUAUAAUCUACCAGAGUGAUGUUCUGGCCUGCCCAUCCCUUGGCAGCCAUGCGUACGGC | 171 nM |
| UGUGUUUACCUGACUCAGUGAUGUUGAGAAGGAGCGUGCGAAGGCACAGGUAGGUCGCUCAACCUAAAUUCAGGUGAGCACUAAA | 281 nM |
| CUCGAGUGAUGUUCGAUUAUGUAUACAGAUACCAGUGAAUUUUAACACCCUUGGCAGCUGGUAGAAUCUUUGUAAUUUUAACUAG [JR_ExcTheophyA_Sub002] | 230 nM |
| UUGUUUGGUUGAGAGGUUGGGCGAGAUGAUACCAGUAGAGAAGAGUACCCUUGGCAGCAUAAGAAAGAUAUAGUGAUGUUGUAUA [SSTheophA.P] | 566 nM |
| GGAGUGAUGUUCCAUUUUUAAAUCUCCGAUACCAGUAUGGAAACAUACCCUUGGCAGCGGUAAACCGCAGAUUAGGAAACUAGUC [Theophylline A K4 1] | 501 nM |
| AAAUAGAUCAGUCAACCAGUGAUGUUGGAAGGAGCGUGCGAAAGCACAGGUAGGUCGCCAGAAUAAAAGUGGCUGAUCAAAAUAA | 508 nM |
